Results from patent US20120316071A1 (published 2012).

Tests used:
[1] = molecular target: T1, rHuman Notch-1/Fc Chimera, CF (R&D Systems Cat#3647-TK) (human, UniProt P46531 19-526); test: MSD Multispot ECL, antigen spotted on plate, Fab 32.5 nM; blank spot 473
T1 construct: Bought reagent; Fc part of the bought chimera not given

[2] = molecular target: T2, rHuman ErbB2/Fc Chimera, CF (R&D Systems Cat#1129-ER) (human, UniProt P04626 23-652); test: as above
T2 construct: Bought reagent; also called human epidermal growth factor 2 receptor; Fc part of the bought chimera not given

[3] = molecular target: T3, rHuman IGF-1 sR, (IGF-1 sR), CF (R&D Systems Cat#391-GR) (human, UniProt P08069 31-932); test: as above
T3 construct: Bought soluble receptor; also called insulin-like growth factor-1 soluble receptor

[4] = molecular target: T4, rHuman HGF R/c-MET/Fc Chimera, CF (R&D Systems Cat#358-MT/CF) (human, UniProt P08581 25-932); test: as above
T4 construct: Bought reagent; also called HGF R/Fc; hepatocyte growth factor receptor; Fc part of the bought chimera not given

[5] = molecular target: T5, rHuman Erythropoietin R/Fc Chimera, CF (R&D Systems Cat#963-ER) (human, UniProt P19235 25-250); test: as above
T5 construct: Bought reagent; also called EPO R/Fc; EPO R; Fc part of the bought chimera not given
T5 sequence (looked up): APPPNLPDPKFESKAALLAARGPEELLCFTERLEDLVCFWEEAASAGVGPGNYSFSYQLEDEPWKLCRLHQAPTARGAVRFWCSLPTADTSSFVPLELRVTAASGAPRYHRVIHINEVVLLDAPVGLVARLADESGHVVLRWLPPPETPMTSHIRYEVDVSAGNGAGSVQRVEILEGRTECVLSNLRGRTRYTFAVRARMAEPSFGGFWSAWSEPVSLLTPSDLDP

[6] = molecular target: T6, Recombinant Human DLL4 (R&D Systems Cat#1506-D4/CF) (human, UniProt Q9NR61 27-529); test: as above
T6 construct: Bought recombinant protein; also called rHuman DLL4; delta-like protein 4

[7] = molecular target: T7, rHuman CD44/Fc Chimera, CF (R&D Systems Cat#3660-CD) (human, UniProt P16070 21-220); test: as above
T7 construct: Bought reagent; Fc part of the bought chimera not given

[8] = molecular target: T8, rHuman EGF R/Fc Chimera, CF (R&D Systems Cat#344-ER) (human, UniProt P00533 25-645); test: as above
T8 construct: Bought reagent; also called epidermal growth factor receptor; Fc part of the bought chimera not given

[9] = molecular target: T9, rHuman EGF R/Fc Chimera, CF (R&D Systems Cat#344-ER) (human, UniProt P00533 25-645); test: ECL Multispot (MSD) assay, antigen spotted on plate, 10 nM Fab; blank spot of this row 182
T9 construct: Bought reagent; also called epidermal growth factor receptor; Fc part of the bought chimera not given

[10] = molecular target: T10, rHuman P-Cadherin/Fc Chimera, CF (R&D Systems Cat#861-PC) (human, UniProt P22223 108-654); test: as above
T10 construct: Bought reagent; Fc part of the bought chimera not given

[11] = molecular target: T11, rHuman Erythropoietin R/Fc Chimera, CF (R&D Systems Cat#963-ER) (human, UniProt P19235 25-250); test: as above
T11 construct: Bought reagent; also called EPO R; EPO R/Fc; Fc part of the bought chimera not given
T11 sequence (looked up): T5 sequence (looked up)

[12] = molecular target: T12, rHuman Notch-1/Fc Chimera, CF (R&D Systems Cat#3647-TK) (human, UniProt P46531 19-526); test: as above
T12 construct: Bought reagent; Fc part of the bought chimera not given

[13] = molecular target: T13, rHuman ErbB2/Fc Chimera, CF (R&D Systems Cat#1129-ER) (human, UniProt P04626 23-652); test: as above
T13 construct: Bought reagent; also called human epidermal growth factor 2 receptor; Fc part of the bought chimera not given

[14] = molecular target: T14, rHuman CD44/Fc Chimera, CF (R&D Systems Cat#3660-CD) (human, UniProt P16070 21-220); test: as above
T14 construct: Bought reagent; Fc part of the bought chimera not given

[15] = molecular target: T15, rHuman HGF R/c-MET/Fc Chimera, CF (R&D Systems Cat#358-MT/CF) (human, UniProt P08581 25-932); test: as above
T15 construct: Bought reagent; also called HGF R/Fc; hepatocyte growth factor receptor; Fc part of the bought chimera not given

[16] = molecular target: T16, rHuman IGF-1 sR, CF (R&D Systems Cat#391-GR) (human, UniProt P08069 31-932); test: as above
T16 construct: Bought soluble receptor; The column head prints only 'IGF-1'; also called insulin-like growth factor-1 soluble receptor

[17] = molecular target: T17, rHuman HGF R/c-MET/Fc Chimera, CF (R&D Systems Cat#358-MT/CF) (human, UniProt P08581 25-932); test: Multispot ECL (MSD) titration; antigen spotted on plate; Fab 1570 nM; blank spot 866
T17 construct: Bought Fc chimera; also called HGF R/Fc; hepatocyte growth factor receptor; Fc part of the bought chimera not given

[18] = molecular target: T18, rHuman IGF-1 sR (IGF-1 sR), CF (R&D Systems Cat#391-GR) (human, UniProt P08069 31-932); test: as above
T18 construct: Bought soluble receptor; also called insulin-like growth factor-1 soluble receptor

B1: Fab VH1-8_IGHD2-2*01_IGHJ6*01 & L12_IGKJ1*01 (Fab, V domains shown)
VH: QVQLVQSGAEVKKPGASVKVSCKASGYTFTSYDINWVRQATGQGLEWMGWMNPNSGNTGYAQKFQGRVTMTRNTSISTAYMELSSLRSEDTAVYYCARGGYCSSTSCYADYYYYYGMDVWGQGTTVTVSS
VL: not shown
B1 showed an ECL signal [1] of 706, an ECL signal [2] of 556 and an ECL signal [3] of 561. For the same binder, the ECL signal [4] was 525, the ECL signal [5] was 673 and the ECL signal [6] was 2990. It also gave an ECL signal [7] of 573 and an ECL signal [8] of 645.

B2: Fab VH1-46_IGHD6-6*01_IGHJ1*01 S102A/S103P/S104F (APF) & L6_IGKJ1*01 (Fab, V domains shown)
VH: QVQLVQSGAEVKKPGASVKVSCKASGYTFTSYYMHWVRQAPGQGLEWMGIINPSGGSTSYAQKFQGRVTMTRDTSTSTVYMELSSLRSEDTAVYYCAREEYAPFSAEYFQHWGQGTLVTVSS
VL: not shown
notes: Tested as a Fab made in E. coli; also called H:APF & L:wt; APF triple mutant
B2 showed an ECL signal [9] of 296, an ECL signal [10] of 449 and an ECL signal [11] of 222. It also gave an ECL signal [12] of 251, an ECL signal [13] of 221 and an ECL signal [14] of 221. For the same binder, the ECL signal [15] was 319 and the ECL signal [16] was 344.

B3: Fab VH1-46_IGHD3-10*01_IGHJ4*01 & O1_IGKJ1*01 (Fab, V domains shown)
VH: QVQLVQSGAEVKKPGASVKVSCKASGYTFTSYYMHWVRQAPGQGLEWMGIINPSGGSTSYAQKFQGRVTMTRDTSTSTVYMELSSLRSEDTAVYYCAREYYYGSGSYYNDYFDYWGQGTLVTVSS
VL: DIVMTQTPLSLPVTPGEPASISCRSSQSLLDSDDGNTYLDWYLQKPGQSPQLLIYTLSYRASGVPDRFSGSGSGTDFTLKISRVEAEDVGVYYCMQRIEFPSWTFGQGTKVEIKR
notes: Germline library Fab expressed in E. coli; VH was cloned into Plasmid A (CH1 constant region, His6 and Flag tags); The kappa VL was cloned into Plasmid C (kappa CL)
In the case of B3, the ECL signal [17] is reported as 1640 and the ECL signal [18] is reported as 1430.
